Like-named read-outs stand apart in the source and are kept apart here.
How the values were obtained:
Experiment in all cases: cell-based or functional assay
CLDN18.1 (human) = CLDN18.1 (human) (UniProt P56856)
CLDN18.2 (human), P56856 [1] = target: CLDN18.2 (human), P56856
CLDN18.2 (human), P56856 [2] = target: CLDN18.2 (human), P56856; remark: listed apart in the source

B1: 21050 chimeric antigen receptor (on CAR-T cells) (protein, part only; not given: hinge, transmembrane and signalling parts, part only)
chain, part: QVQLQQPGAELVRPGASVKLSCKASGYTFTSYWINWVKQRPGQGLEWIGNIYPSDSYTNYNQKFKDKATLTVDKSSSTAYMQLSSPTSEDSAVYYCTRSWRGNSFDYWGQGTTLTVSSGGGGSGGGGSGGGGSDIVMTQSPSSLTVTAGEKVTMSCKSSQSLLNSGNQKNYLTWYQQKPGQPPKLLIYWASTRESGVPDRFTGSGSGTDFTLTISSVQAEDLAVYYCQNDYSYPFTFGSGTKLEIK
cytokine secretion (IFN-γ) (CLDN18.1 (human)): < 100 µg/mL

B2: 21047 chimeric antigen receptor (on CAR-T cells) (protein)
chain: QVQLVESGGGLVQPGGSLRLSCAASGSIFNIPVMGWYRQAPGKQRELVAGISTGGTTNYGDSVKGRFTISRDNAKNTVYLQMNSLKPEDTAVYYCNVLVVSGIGSTLEVWGQGTLVTVSSIEVMYPPPYLDNEKSNGTIIHVKGKHLCPSPLFPGPSKPFWVLVVVGGVLACYSLLVTVAFIIFWVRSKRSRLLHSDYMNMTPRRPGPTRKHYQPYAPPRDFAAYRSRVKFSRSADAPAYQQGQNQLYNELNLGRREEYDVLDKRRGRDPEMGGKPRRKNPQEGLYNELQKDKMAEAYSEIGMKGERRRGKGHDGLYQGLSTATKDTYDALHMQALPPR
IFN-γ secretion levels (CLDN18.2 (human), P56856 [1]): > 5000 pg/mL
IFN-γ secretion levels (CLDN18.2 (human), P56856 [2]): > 10000 pg/mL

B3: 21011 chimeric antigen receptor (on CAR-T cells) (protein, part only; not given: hinge, transmembrane and signalling parts, part only)
chain, part: EVQLVESGGGLVQPGGSLRLSCAASGSIFSVNGIMWYRQAPGKQRELVAARYTGSVIDSGKTGTGRFTISRDNAKNTLYLQMNSLRAEDTAVYYCNAPTAALTRVEWDVYSLWGQGTLVTVSS
cytokine secretion (IFN-γ) (CLDN18.1 (human)): < 100 µg/mL

B4: 21009 chimeric antigen receptor (on CAR-T cells) (protein, part only; not given: hinge, transmembrane and signalling parts, part only)
chain, part: EVQVVESGGGLVQPGGSLRLSCAASGNIFRTDIGMWYRQAPGKGRELVAGTTTGRSGYVDKASIGRFTISRDNAKNTMYLQMNSLRAEDTAVYYCNAYGVWEQTPFDALRWGQGTLVTVSS
cytokine secretion (IFN-γ) (CLDN18.1 (human)): < 100 µg/mL
